This test addresses [2Fe-2S]-bound Mtb-SufU (sulfide transfer protein SufU, Rv1465, of Mycobacterium tuberculosis H37Rv) (Mycobacterium tuberculosis H37Rv) (UniProt O53156). Nature of the test: SEC-MALS.

What is called stoichiometry N is the number of molecules, sites or subunits per partner or assembly.

For “[2Fe-2S]-bound Mtb-SufU (sulfide transfer protein SufU, Rv1465, of Mycobacterium tuberculosis H37Rv) (from UniProt O53156 1-162) (natural protein)”, the stoichiometry N came to 4.

These data come from doi:10.1101/2025.06.15.659787.
